In US20030236190A1 (published 2003):
Positions of bridges follow the written chain, without caps; N, C: chain ends. No end group written: not given here.

B1: NNRPγ-4-A1-IR (peptide)
peptide: IIGGFYSYFNSVLRLGT
B2: 20E2B-2-22-IGFR (peptide)
peptide: PGTDLGFYQALRCVVIQGACD
modifications: not fully specified (bridges); cysteine pairing not given here
B3: B6Hα-2-C7-IR (peptide)
peptide: RGIVAMVEATEVGSDHDPFYHKLSELVQGS
B4: 20E2B-4-H8-IGFR (peptide)
peptide: PAGPCGFYCGLGLLLHGDQSP
modifications: disulfide 5-9 (inferred)
B5: 20E22-4-F8-IGFR (peptide)
peptide: PVGVQGFYEGLSRLVLGRGGW
B6: 20E2B-3-D11-IGFR (peptide)
peptide: LGVTDGFYAALGYLIHGVGQF
B7: 20E22-1-A8-IGFR (peptide)
peptide: TLRSPTFYDWLEMVLTHGQGG
B8: 20E2B-2-B3-IGFR (peptide)
peptide: ICTGQGFYQVLCGLLRGTSAR
modifications: disulfide 2-12 (inferred)
B9: 20E2B-3-C8-IGFR (peptide)
peptide: QPAPDGFYSALMKLIGRGGVS
B10: 20E2B-3-D4-IGFR (peptide)
peptide: NSRDGGFYLQLERLLGFPVTG
B11: 20E2H-3-E12-IGFR (peptide)
peptide: VATSQGFYSGLSELLQGGGNV
B12: 20E22-3-E8-IGFR (peptide)
peptide: LRIANLFYQRLWDLAFGGGG
B13: 20C-3-E4-IGFR (peptide)
peptide: FFYRCLSRLLGGQLGSRLGLSCIGD
modifications: disulfide 5-22 (inferred)
B14: 20E2B-4-G11-IGFR (peptide)
peptide: RQGTGSFYLMLEQLLVGARGP
B15: 20E2A-3-C7-IGFR (peptide)
peptide: VGTVAGFYDAIAQLVARASRV
B16: NNRPγ-4-A7-IR (peptide)
peptide: RFDPFYSYFVNLLGASA
B17: 20E28-1-A11-ICFR (peptide)
peptide: RFSTDGFYQYLLALVGGGPVG
B18: B6Eα-2-C10-IR (peptide)
peptide: SGAKVIVVTGDSGDPFYHKLSELLQGS
B19: 20E2B-2-88-IGFR (peptide)
peptide: IWATGDFYRLLSQLVMGRVGT
B20: 26Hα-3-E8-IR (peptide)
peptide: RGKTAAVIVGRPADPFYHKLSELLQGG
B21: 20E28-3-D6-IGFR (peptide)
peptide: DSVGDNFYQLLESLVGGHGVG
B22: 20E2B-4-E9-IGFR (peptide)
peptide: RCQGTGFYTCIQELIGFGDPD
modifications: disulfide 2-10 (inferred)
B23: NNRPy-4-A9-IR (peptide)
peptide: EGSGFYGYFFSLLGLQG
B24: 20E23-3-D8-IGFR (peptide)
peptide: GGTEVDFYRALERLVRGQLGL
B25: 20E2B-3-D12-IGFR (peptide)
peptide: QGNVLDFYGWIGRLLAKQGSD
B26: 20C-3-A4-IGFR (peptide)
peptide: QFYGCLLDLSLGVPSFGWRRRCITA
modifications: disulfide 5-22 (inferred)
B27: 20E2B-4-F9-IGFR (peptide)
peptide: QPDHSYFYSLLQELVGSEERL
B28: 20E2B-3-C4-1GFR (peptide)
peptide: ASSASGFYELLQRLAGLGLEV
B29: R20α-4-20C11-IR (peptide)
peptide: DRAFYNGLRDLVGAVYGAWD
B30: 20E2B-2-B7-IGFR (peptide)
peptide: LSSDGQFYRALNLLLQGSAGR

What follows are binders tested against T1, Soluble IGF-1R (R&D Systems, Cat. # 391-GR/CF); recombinant human IGF-1R (human, UniProt P08069 31-935) (assay: phage ELISA, vs IR).
T1 construct: extracellular domain; Eu3+-labelled in the TR-FRET assays; also called sIGF-1R; rhIGF-1R
For B1, the “IGF-1R/IR Comparison” value was 6 ratio. B2 was tested, and the “IGF-1R/IR Comparison” value was 8.1 ratio. B3 was tested, and the “IGF-1R/IR Comparison” value was 6.7 ratio. With B4 the “IGF-1R/IR Comparison” value was 5.9 ratio. For B5, the “IGF-1R/IR Comparison” value was 9.7 ratio. In the case of B6, the “IGF-1R/IR Comparison” value is reported as 7.6 ratio. In the case of B7, the “IGF-1R/IR Comparison” value is reported as 5 ratio. B8 was tested, and the “IGF-1R/IR Comparison” value was 7.4 ratio. B9 was tested, and the “IGF-1R/IR Comparison” value was 8.9 ratio. With B10 the “IGF-1R/IR Comparison” value was 9.6 ratio. With B11 the “IGF-1R/IR Comparison” value was 7.3 ratio. For B12, the “IGF-1R/IR Comparison” value was 11.1 ratio. In the case of B13, the “IGF-1R/IR Comparison” value is reported as 6 ratio. For B14, the “IGF-1R/IR Comparison” value was 7 ratio. For B15, the “IGF-1R/IR Comparison” value was 5.1 ratio. With B16 the “IGF-1R/IR Comparison” value was 4.9 ratio. For B17, the “IGF-1R/IR Comparison” value was 9.7 ratio. For B18, the “IGF-1R/IR Comparison” value was 5.3 ratio. With B19 the “IGF-1R/IR Comparison” value was 7.2 ratio. With B20 the “IGF-1R/IR Comparison” value was 4.8 ratio. For B21, the “IGF-1R/IR Comparison” value was 6.9 ratio. In the case of B22, the “IGF-1R/IR Comparison” value is reported as 5.6 ratio. For B23, the “IGF-1R/IR Comparison” value was 7.1 ratio. In the case of B24, the “IGF-1R/IR Comparison” value is reported as 11.3 ratio. B25 was tested, and the “IGF-1R/IR Comparison” value was 7.3 ratio. With B26 the “IGF-1R/IR Comparison” value was 7.6 ratio. For B27, the “IGF-1R/IR Comparison” value was 7.7 ratio. With B28 the “IGF-1R/IR Comparison” value was 6.2 ratio. B29 was tested, and the “IGF-1R/IR Comparison” value was 10.3 ratio. B30 was tested, and the “IGF-1R/IR Comparison” value was 6.7 ratio.

These binders were tested against T1, Soluble IGF-1R (R&D Systems, Cat. # …) (assay: phage ELISA vs milk).
For B1, the “Ratio over Background” value was 10.9 fold. B2 was tested, and the “Ratio over Background” value was 4.9 fold. In the case of B3, the “Ratio over Background” value is reported as 6.7 fold. In the case of B4, the “Ratio over Background” value is reported as 5.3 fold. In the case of B5, the “Ratio over Background” value is reported as 7.3 fold. In the case of B6, the “Ratio over Background” value is reported as 12.2 fold. For B7, the “Ratio over Background” value was 4.4 fold. B8 was tested, and the “Ratio over Background” value was 5.3 fold. For B9, the “Ratio over Background” value was 15.6 fold. In the case of B10, the “Ratio over Background” value is reported as 7.9 fold. B11 was tested, and the “Ratio over Background” value was 6 fold. With B12 the “Ratio over Background” value was 16.7 fold. B13 was tested, and the “Ratio over Background” value was 7.7 fold. In the case of B14, the “Ratio over Background” value is reported as 4.5 fold. With B15 the “Ratio over Background” value was 5.4 fold. In the case of B16, the “Ratio over Background” value is reported as 6.3 fold. B17 was tested, and the “Ratio over Background” value was 9.5 fold. With B18 the “Ratio over Background” value was 5.8 fold. B19 was tested, and the “Ratio over Background” value was 5.7 fold. With B20 the “Ratio over Background” value was 5.3 fold. With B21 the “Ratio over Background” value was 17.8 fold. In the case of B22, the “Ratio over Background” value is reported as 5.2 fold. B23 was tested, and the “Ratio over Background” value was 10 fold. For B24, the “Ratio over Background” value was 17.7 fold. For B25, the “Ratio over Background” value was 6.2 fold. With B26 the “Ratio over Background” value was 8.8 fold. B27 was tested, and the “Ratio over Background” value was 14.7 fold. B28 was tested, and the “Ratio over Background” value was 20.4 fold. For B29, the “Ratio over Background” value was 30.8 fold. In the case of B30, the “Ratio over Background” value is reported as 6.1 fold.

Each binder was assayed against T2, Insulin receptor prepared according to Bass et al., 1996: soluble human insulin receptor-immunoglobulin heavy … (human, UniProt P06213 28-956) (assay: phage ELISA vs milk).
T2 construct: extracellular domain; Eu3+-labelled in TR-FRET; also called IR; sIR-Fc; not shown: immunoglobulin heavy chain constant domains that replace the transmembrane and i
With B1 the “Ratio over Background” value was 1.8 fold. For B2, the “Ratio over Background” value was 0.6 fold. For B3, the “Ratio over Background” value was 1 fold. B4 was tested, and the “Ratio over Background” value was 0.9 fold. In the case of B5, the “Ratio over Background” value is reported as 0.8 fold. With B6 the “Ratio over Background” value was 1.6 fold. In the case of B7, the “Ratio over Background” value is reported as 0.9 fold. In the case of B8, the “Ratio over Background” value is reported as 0.7 fold. In the case of B9, the “Ratio over Background” value is reported as 1.8 fold. For B10, the “Ratio over Background” value was 0.8 fold. In the case of B11, the “Ratio over Background” value is reported as 0.8 fold. For B12, the “Ratio over Background” value was 1.5 fold. For B13, the “Ratio over Background” value was 1.3 fold. In the case of B14, the “Ratio over Background” value is reported as 0.6 fold. For B15, the “Ratio over Background” value was 1.1 fold. B16 was tested, and the “Ratio over Background” value was 1.3 fold. For B17, the “Ratio over Background” value was 1 fold. B18 was tested, and the “Ratio over Background” value was 1.1 fold. In the case of B19, the “Ratio over Background” value is reported as 0.8 fold. For B20, the “Ratio over Background” value was 1.1 fold. For B21, the “Ratio over Background” value was 2.6 fold. B22 was tested, and the “Ratio over Background” value was 0.9 fold. B23 was tested, and the “Ratio over Background” value was 1.4 fold. With B24 the “Ratio over Background” value was 1.6 fold. With B25 the “Ratio over Background” value was 0.9 fold. For B26, the “Ratio over Background” value was 1.2 fold. For B27, the “Ratio over Background” value was 1.9 fold. B28 was tested, and the “Ratio over Background” value was 3.3 fold. With B29 the “Ratio over Background” value was 3 fold. With B30 the “Ratio over Background” value was 0.9 fold.

What follows are binders tested against T2, Insulin receptor prepared according to … (assay: phage ELISA, vs IGF-1R).
In the case of B1, the “IR/IGF-1R Comparison” value is reported as 0.2 ratio. B2 was tested, and the “IR/IGF-1R Comparison” value was 0.1 ratio. For B3, the “IR/IGF-1R Comparison” value was 0.1 ratio. In the case of B4, the “IR/IGF-1R Comparison” value is reported as 0.2 ratio. For B5, the “IR/IGF-1R Comparison” value was 0.1 ratio. With B6 the “IR/IGF-1R Comparison” value was 0.1 ratio. B7 was tested, and the “IR/IGF-1R Comparison” value was 0.2 ratio. B8 was tested, and the “IR/IGF-1R Comparison” value was 0.1 ratio. In the case of B9, the “IR/IGF-1R Comparison” value is reported as 0.1 ratio. For B10, the “IR/IGF-1R Comparison” value was 0.1 ratio. In the case of B11, the “IR/IGF-1R Comparison” value is reported as 0.1 ratio. In the case of B12, the “IR/IGF-1R Comparison” value is reported as 0.1 ratio. In the case of B13, the “IR/IGF-1R Comparison” value is reported as 0.2 ratio. B14 was tested, and the “IR/IGF-1R Comparison” value was 0.1 ratio. With B15 the “IR/IGF-1R Comparison” value was 0.2 ratio. In the case of B16, the “IR/IGF-1R Comparison” value is reported as 0.2 ratio. In the case of B17, the “IR/IGF-1R Comparison” value is reported as 0.1 ratio. In the case of B18, the “IR/IGF-1R Comparison” value is reported as 0.2 ratio. B19 was tested, and the “IR/IGF-1R Comparison” value was 0.1 ratio. For B20, the “IR/IGF-1R Comparison” value was 0.2 ratio. In the case of B21, the “IR/IGF-1R Comparison” value is reported as 0.1 ratio. For B22, the “IR/IGF-1R Comparison” value was 0.2 ratio. In the case of B23, the “IR/IGF-1R Comparison” value is reported as 0.1 ratio. For B24, the “IR/IGF-1R Comparison” value was 0.1 ratio. B25 was tested, and the “IR/IGF-1R Comparison” value was 0.1 ratio. B26 was tested, and the “IR/IGF-1R Comparison” value was 0.1 ratio. With B27 the “IR/IGF-1R Comparison” value was 0.1 ratio. For B28, the “IR/IGF-1R Comparison” value was 0.2 ratio. In the case of B29, the “IR/IGF-1R Comparison” value is reported as 0.1 ratio. B30 was tested, and the “IR/IGF-1R Comparison” value was 0.1 ratio.
